The text below walks through data of article PMC5976803, “Engineered membrane protein antigens successfully induce antibodies against extracellular regions of claudin-5” (Scientific Reports, 2018).

To fix the notation:
B1: anti-CLDN-5 ECR mAb clone 1B3 (antibody, V domains shown)
VH: QIQLVQSGPELKKPGETVKISCKASGYSFTAHGMSWVKQAPGKGLKWMGWINTYSGVPAYADDFKGRFAFSLETSPSTAFLQINNLKNEDTATYFCTRSHYDRKFGYWGQGTLVTVSA
VL: QAVVTQESALTTSPGETVTLTCRSSTGAVTTSNYANWVQEKPDHLFTGLIGDTNNRAPGVPARFSGSLIGDKAALTITGAQTGDEAIYFCALWYSNLWVFGGGTKLTVR
notes: source: hybridoma from an Antigen1-immunized BXSB mouse; ascitic fluid, purified (Protein G Sepharose); also reconstituted as recombinant antibody
B2: anti-CLDN-5 ECR mAb clone 2B12 (antibody, V domains shown)
VH: QVQLQQSGAELARPGASVKLSCKASGYTFTRFGMSWVKQRTGQGLEWIGEIYPGSGDTYYSENFKGKATLTADKSSGTAYMELRSLTSEDSAVYFCARWGIYYGNPYAMDYWGQGTSVTVSS
VL: DIVMTQAAPSVPVTPGESVSISCRSSKSLLHSNGNTYLYWFLQRPGQSPQLLIYRMSNLASGVPDRFSGSGSGTAFTLRISRVEAEDVGVYYCLQHLEYPFTFGSGTKLEIK
notes: source: hybridoma from an Antigen2-immunized BXSB mouse; ascitic fluid, purified (Protein G Sepharose); also reconstituted as recombinant antibody
B3: anti-CLDN-5 ECR mAb clone 1D1 (antibody, V domains shown)
VH: QVQLQQPGAEHVKPGASVKLSCKASGYTFTTYWIHWVKQRPGRGLEWIGRIAPNSGGTKYNENFKSKATLTVDRPSTTAYMQLSGLTSEDSAVYYCARWDFTFGTNLDYWGQGTTLTVSS
VL: DIVMTQSQKFMSTSVGDRVSITCKASQNVRTAVAWYQQKPGQSPKALIFLASNRHTGVPDRFTGSGSGTDFTLTITNVQSEDLADYFCLQHWTYPYTFGGGTKLEIK
notes: as for B2
B4: anti-CLDN-5 ECR mAb clone 2B1 (antibody, V domains shown)
VH: B3 VH with H11L, Y32F, N54Y, K59T, N63K, S84I, G85S, F103Y, T105S
VL: B3 VL with T22P, F49Y, T76S, Q90G, T93D
notes: as for B2

Numbering of substitutions follows the chain as printed.

T3 sequence (P56747 whole entry): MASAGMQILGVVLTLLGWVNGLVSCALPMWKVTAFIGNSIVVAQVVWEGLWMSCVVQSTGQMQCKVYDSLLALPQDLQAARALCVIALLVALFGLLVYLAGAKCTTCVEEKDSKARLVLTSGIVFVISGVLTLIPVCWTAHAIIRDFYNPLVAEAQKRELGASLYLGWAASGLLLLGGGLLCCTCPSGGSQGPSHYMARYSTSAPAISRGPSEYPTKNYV
T1 sequence (O15551 whole entry): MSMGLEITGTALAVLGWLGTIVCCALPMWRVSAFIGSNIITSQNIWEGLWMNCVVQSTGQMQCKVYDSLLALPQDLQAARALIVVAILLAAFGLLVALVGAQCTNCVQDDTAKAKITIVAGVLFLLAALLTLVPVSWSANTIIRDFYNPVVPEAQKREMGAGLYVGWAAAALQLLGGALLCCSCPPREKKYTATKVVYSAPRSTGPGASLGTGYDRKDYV
T8 sequence (P57739 whole entry): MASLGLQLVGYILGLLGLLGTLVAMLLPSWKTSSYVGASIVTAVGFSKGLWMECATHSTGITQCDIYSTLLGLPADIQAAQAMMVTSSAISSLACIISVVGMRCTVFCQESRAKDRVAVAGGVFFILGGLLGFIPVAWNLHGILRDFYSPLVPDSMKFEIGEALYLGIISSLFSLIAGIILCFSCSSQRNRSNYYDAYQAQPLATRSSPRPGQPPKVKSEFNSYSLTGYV
T4 sequence (O95471 whole entry): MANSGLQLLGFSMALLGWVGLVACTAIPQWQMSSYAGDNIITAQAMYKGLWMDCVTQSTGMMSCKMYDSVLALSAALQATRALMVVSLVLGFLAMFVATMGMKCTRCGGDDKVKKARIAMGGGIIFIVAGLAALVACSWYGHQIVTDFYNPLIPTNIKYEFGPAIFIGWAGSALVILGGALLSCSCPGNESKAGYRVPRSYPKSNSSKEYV

One assay addresses T1, human claudin-3 expressed in HT-1080 cells (Homo sapiens (Human)., UniProt O15551).
T1 construct: claudin-3, human; also called human CLDN-3; source: HT-1080 cells, stably expressing
The assay can be described thus: flow cytometry on cells; HT-1080 cells stably expressing CLDNs or CLDN-5 mutants, detached with 0.05% trypsin/0.02% EDTA; 5 µg/mL mAb; fluorescence-conjugated goat anti-mouse IgG. The following applies: one partner purified. In general terms: Flow cytometry measures light scatter and fluorescence of single cells or particles in a stream.
Take B1: the binding result is given as “no binding (tested: 5 µg/mL)”.
B2: the binding result is recorded as “no binding (tested: 5 µg/mL)”.
Consider B3, for which the binding result was “no binding (tested: 5 µg/mL)”.
Still for that read-out and setting: as for B4, the entry is “no binding (tested: 5 µg/mL)”.

For a further assay, the target named is T2, human claudin-4 expressed in HT-1080 cells (Homo sapiens (Human)., UniProt O14493).
T2 construct: claudin-4, human; also called human CLDN-4; source: HT-1080 cells, stably expressing
T2 sequence (O14493 whole entry): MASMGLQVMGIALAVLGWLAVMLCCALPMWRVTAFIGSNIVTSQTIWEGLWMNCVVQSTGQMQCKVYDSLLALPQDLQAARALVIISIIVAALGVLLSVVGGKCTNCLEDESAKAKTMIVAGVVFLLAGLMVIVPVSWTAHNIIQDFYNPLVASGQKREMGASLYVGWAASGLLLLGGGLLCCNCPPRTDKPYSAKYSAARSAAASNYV
Described as above. As to conditions: one partner purified.
As for B1, the binding result is recorded as “no binding (tested: 5 µg/mL)”.
Still for that read-out and setting: as for B2, the entry is “no binding (tested: 5 µg/mL)”.
Take B3: the binding result is recorded as “no binding (tested: 5 µg/mL)”.
Same read-out and setting: next, B4: “no binding (tested: 5 µg/mL)”.

Another assay concerns the target T3, human claudin-6 expressed in HT-1080 cells (Homo sapiens (Human)., UniProt P56747).
T3 construct: claudin-6, human; also called human CLDN-6; source: HT-1080 cells, stably expressing
The description is as above. The following applies: one partner purified.
B1: the binding result is “no binding (tested: 5 µg/mL)”.
Regarding B2, the binding result is given as “no binding (tested: 5 µg/mL)”.
On the same count and under the same terms, as for B3, the entry is “no binding (tested: 5 µg/mL)”; as for B4, “no binding (tested: 5 µg/mL)”.

The next assay has as its target T4, human claudin-7 expressed in HT-1080 cells (Homo sapiens (Human)., UniProt O95471).
T4 construct: claudin-7, human; also called human CLDN-7; source: HT-1080 cells, stably expressing
The description is as above. The following applies: one partner purified.
Regarding B1, the binding result is reported as “no binding (tested: 5 µg/mL)”.
Same read-out and setting: next, B2: “no binding (tested: 5 µg/mL)”.
Still for that read-out and setting: as for B3, the entry is “no binding (tested: 5 µg/mL)”; as for B4, “no binding (tested: 5 µg/mL)”.

The target in the next assay is T5, human claudin-5 expressed in HT-1080 cells (Homo sapiens (Human)., UniProt O00501).
T5 construct: claudin-5, human; In the western blot the same protein stood denatured in the cell lysate; The TEER assays used MDCKII cells expressing human CLDN-5; also called human CLDN-5; hCLDN-5; source: HT-1080 cells, stably expressing; on cells and in lysate
T5 sequence (O00501 whole entry): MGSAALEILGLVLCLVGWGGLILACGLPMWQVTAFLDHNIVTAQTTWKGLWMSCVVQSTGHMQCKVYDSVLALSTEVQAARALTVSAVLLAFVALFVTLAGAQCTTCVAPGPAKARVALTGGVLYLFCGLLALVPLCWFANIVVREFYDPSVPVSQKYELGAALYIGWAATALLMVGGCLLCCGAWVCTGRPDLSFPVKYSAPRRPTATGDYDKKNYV
The assay is described as above. The following applies: one partner purified.
As for B1, the binding result was “binds”.
Same read-out and setting: as for B3, the entry is “binds”; as for B4, “binds”.

For the next assay, the target named is T6, mouse claudin-5 expressed in HT-1080 cells (Mus musculus (Mouse)., UniProt O54942).
T6 construct: claudin-5, mouse; The TEER assays used MDCKII cells expressing mouse CLDN-5; also called mouse CLDN-5; mCLDN-5; source: HT-1080 cells, stably expressing
T6 sequence (O54942 whole entry): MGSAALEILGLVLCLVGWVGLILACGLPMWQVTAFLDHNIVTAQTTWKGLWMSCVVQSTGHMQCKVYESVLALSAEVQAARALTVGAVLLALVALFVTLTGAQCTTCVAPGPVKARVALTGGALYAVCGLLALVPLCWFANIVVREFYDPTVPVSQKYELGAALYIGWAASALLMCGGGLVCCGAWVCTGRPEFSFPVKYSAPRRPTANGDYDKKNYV
The description is as above. The following applies: one partner purified.
Turning to B1, the binding result is on record as “no binding (tested: 5 µg/mL)”.
Same read-out and setting: next, B2: “no binding (tested: 5 µg/mL)”; B3: “no binding (tested: 5 µg/mL)”.
The same measure, in the same setting: next, B4: “no binding (tested: 5 µg/mL)”.

In the next assay the target is T7, human claudin-1 expressed in HT-1080 cells (Homo sapiens (Human)., UniProt O95832).
T7 construct: claudin-1, human; also called human CLDN-1; source: HT-1080 cells, stably expressing
T7 sequence (O95832 whole entry): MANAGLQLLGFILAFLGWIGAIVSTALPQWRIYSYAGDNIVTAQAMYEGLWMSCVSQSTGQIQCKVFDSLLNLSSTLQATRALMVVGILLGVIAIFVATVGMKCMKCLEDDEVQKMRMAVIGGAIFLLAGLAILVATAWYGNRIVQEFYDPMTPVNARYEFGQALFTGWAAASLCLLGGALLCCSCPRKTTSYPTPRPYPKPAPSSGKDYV
Described as above. As to conditions: one partner purified.
As for B1, the binding result was “no binding (tested: 5 µg/mL)”.
Still for that read-out and setting: as for B2, the entry is “no binding (tested: 5 µg/mL)”.
The same measure, in the same setting: next, B3: “no binding (tested: 5 µg/mL)”.
Still for that read-out and setting: next, B4: “no binding (tested: 5 µg/mL)”.

The next assay has as its target T8, human claudin-2 expressed in HT-1080 cells (Homo sapiens (Human)., UniProt P57739).
T8 construct: claudin-2, human; also called human CLDN-2; source: HT-1080 cells, stably expressing
The assay is described as above. As to conditions: one partner purified.
With B1, the binding result is reported as “no binding (tested: 5 µg/mL)”.
On the same count and under the same terms, next, B2: “no binding (tested: 5 µg/mL)”; B3: “no binding (tested: 5 µg/mL)”; B4: “no binding (tested: 5 µg/mL)”.

The target of another assay is T9, AGIA-tagged human CLDN-5, cell-free synthesized proteoliposome (Homo sapiens, UniProt O00501).
T9 construct: claudin-5, human; codon-converted synthetic gene; The vector pEU-E01-AGIA-GW puts a start codon and the AGIA tag at the 5′-end of the cassette, though the label reads hCLDN-5-AGIA; also called hCLDN-5-AGIA; cell-free synthesized CLDN-5; source: wheat cell-free synthesis on liposomes, proteoliposomes collected by centrifugation; not shown: AGIA, N-terminal, kept
T9 sequence (O00501 whole entry): as the sequence (O00501 whole entry) above
Description: ELISA; cell-free synthesized AGIA-tagged CLDN proteoliposomes immobilised on a microtiter plate overnight at 4 °C; mAb 10 µg/mL in 5% skimmed milk/T-TBS, 1 h at room temperature; HRP anti-mouse IgG + IgM. As to conditions: both partners purified. Background: ELISA stands for enzyme-linked immunosorbent assay.
B1: the binding result is “binds”.
The same measure, in the same setting: as for B3, the entry is “binds”; as for B4, “binds”.

For the next assay, the target named is T5, human claudin-5 expressed in HT-1080 …. Description: flow cytometry on cells; HT-1080/hCLDN-5 cells with purified mAb at 0.0024–40 µg/mL; mean fluorescence intensity fitted to Y = Bmax • X/(Kd + X); apparent dissociation constant; three independent experiments. The following applies: one partner purified.
For the molecule B2, the Kd was determined as 7.37 nM.
